Assay [1] addresses I-A^g7 (mouse (NOD; endogenous in 4G4.7 hybridoma)). Description: ELISA. In general terms: An ELISA detects its analyte on a solid surface through an enzyme-linked reagent.
Assay [2] deals with T1, purified I-A^g7 (Mus musculus, UniProt P04228+Q31135).
T1 sequence (P04228 24-256): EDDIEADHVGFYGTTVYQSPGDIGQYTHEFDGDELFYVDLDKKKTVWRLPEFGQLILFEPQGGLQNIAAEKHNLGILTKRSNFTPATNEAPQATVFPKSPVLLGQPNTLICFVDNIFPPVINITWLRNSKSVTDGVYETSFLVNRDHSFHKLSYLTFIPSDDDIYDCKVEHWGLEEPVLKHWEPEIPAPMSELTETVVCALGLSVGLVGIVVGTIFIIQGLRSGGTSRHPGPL
T1 sequence (Q31135 1-263): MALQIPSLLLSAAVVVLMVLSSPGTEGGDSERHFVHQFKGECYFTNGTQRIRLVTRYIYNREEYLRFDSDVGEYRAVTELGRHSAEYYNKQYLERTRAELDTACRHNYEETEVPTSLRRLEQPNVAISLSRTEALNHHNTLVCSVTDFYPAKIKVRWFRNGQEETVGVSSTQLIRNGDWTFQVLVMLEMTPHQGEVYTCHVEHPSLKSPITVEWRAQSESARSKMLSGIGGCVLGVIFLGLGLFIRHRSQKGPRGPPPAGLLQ
Description: biochemical. In kind it is binding, NOD mouse.

Assay [3] concerns purified I-A^g7. Description: biochemical. In kind it is binding, NOD mouse.
The subject of assay [4] is purified I-A^g7. Conditions: cited from earlier work.

No end group written: not given here.

As a reminder, the IC50 is the concentration that gives 50% inhibition. A high value points to a need for much substance.

In turn, HEL 9–27 (peptide) had an IC50 in assay [1] of 350 nM. Still for that read-out and setting: the value for HEL 13–23 (peptide) was 200 nM; that for HEL 10–22 H15D (peptide) was 1750 nM; that for HEL 14–27 (peptide) was 2000 nM. For the substance AAAMKRHGLDNYRGYSL-NH2 [HEL 9–25], on purified I-A^g7 [2], the IC50 came out at 300 nM. In turn, HEL 10–22 Y20H (peptide) registered an IC50 in assay [1] of 1000 to 10000 nM. Substance HEL 10–22 R14S (peptide) came in with an IC50 in assay [1] of 1000 to 10000 nM.

For KRHGLDNYRGY-NH2 [HEL 13–23], half-maximal inhibition against purified I-A^g7 [2] (IC50) was put at 200 nM. For the substance KRHGLDNYRG-NH2 [HEL 13–22], the IC50 on purified I-A^g7 [2] came to 250 nM. The substance HEL 18–27 (peptide) returned an IC50 in assay [1] greater than 50000 nM. The same measure, in the same setting: the same measure for HEL 10–22 D18Y (peptide): 100 nM; for HEL 10–22 R21P (peptide): 350 nM; for HEL 10–22 L17V (peptide): less than 1000 nM.

In assay [1], HEL 13–27 (peptide) returned a 50% inhibitory concentration (IC50) of 300 nM. In other words, the sub-micromolar range. On the same count and under the same terms, the value for HEL 10–22 N19R (peptide) was 1000 to 10000 nM; that for HEL 10–22 R21Y (peptide) was 300 nM. Still for that read-out and setting: the same measure for HEL 10–22 Y20W (peptide): 1000 to 10000 nM. On to AAAMKRHGLDNYRGYSLGN-NH2 [HEL 9–27], for which, at purified I-A^g7 [2], the IC50 worked out at 350 nM. In assay [1], HEL 19–27 (peptide) showed an IC50 greater than 50000 nM.

HEL 10–22 N19S (peptide): the IC50 in assay [1] is less than 1000 nM. In turn, HEL 10–22 Y20M (peptide) showed an IC50 in assay [1] of 1000 to 10000 nM.

As for HEL 10–22 L17I (peptide), the half-inhibitory concentration (IC50) in assay [1] is less than 1000 nM. As for RHGLDNYRGYSLGN-NH2 [HEL 14–27], the IC50 on purified I-A^g7 [2] stood at 2000 nM. This lies in the single-digit micromolar range. HEL 10–27 (peptide) displayed an IC50 in assay [1] of 300 nM. The same measure, in the same setting: the same measure for HEL 10–23 (peptide): 295 nM; for HEL 10–22 L17N (peptide): 1000 to 10000 nM.

Take MKRHGLDNYRGYSLGN-NH2 [HEL 12–27]: 300 nM corresponded to half-maximal inhibition against purified I-A^g7 [2] (IC50). This counts as sub-micromolar. For the substance HEL 10–22 D18E (peptide), the IC50 in assay [1] is less than 1000 nM. Substance HEL 9–26 (peptide) showed a half-inhibitory concentration (IC50) in assay [1] of 300 nM.

In turn, HEL 10–22 N19Y (peptide) yielded an IC50 in assay [1] greater than 50000 nM. Still for that read-out and setting: the same measure for HEL 10–22 G22P (peptide): 650 nM; for human proinsulin 49–63 (peptide): 1000 nM; for HEL 10–22 K13A (peptide): 300 nM. In the case of HEL 10–22 L17T (peptide), the IC50 in assay [1] lay in the range of 1000 to 10000 nM. As for HEL 9–21 (peptide), the IC50 in assay [1] stood at 300 nM. This lies in the sub-micromolar range.

The substance HEL 12–27 (peptide) returned an IC50 in assay [1] of 300 nM.

For human proinsulin 5–19 (peptide), the IC50 in assay [1] was 30000 nM. Consider MKRHGLDNYRGY-NH2 [HEL 12–23], for which, at purified I-A^g7 [2], half-maximal inhibition (IC50) required 250 nM. With HEL 10–22 (peptide), in assay [1], the IC50 was 295 nM. In the case of HEL 10–22 D18R (peptide), in assay [1], the 50% inhibitory concentration (IC50) is less than 1000 nM. On the same count and under the same terms, the value for human proinsulin 21–35 (peptide) was 1000 nM; that for HEL 10–22 Y20Q (peptide) was 2000 nM.

On to HEL 10–22 L17H (peptide), for which, in assay [1], the IC50 is 1000 to 10000 nM.

In turn, HEL 10–22 D18P (peptide) showed an IC50 in assay [1] of 300 nM. In other words, the sub-micromolar range. On to AAAMKRHGLDNYRG-NH2 [HEL 9–22], for which inhibition on purified I-A^g7 [2] was half-maximal at 300 nM (IC50). The substance HEL 9–24 (peptide) came in with an IC50 in assay [1] of 200 nM. Take AAAMKRHGLDNYRGYS-NH2 [HEL 9–24]: the IC50 at purified I-A^g7 [2] came out at 200 nM. In turn, HGLDNYRGYSLGN-NH2 [HEL 15–27] yielded a half-maximal inhibitory concentration (IC50) on purified I-A^g7 [2] of 20000 nM. With HEL 10–22 N19E (peptide), the IC50 in assay [1] fell in the range of 1000 to 10000 nM. HEL 10–22 R14G (peptide): the IC50 in assay [1] was 1000 to 10000 nM. Regarding HEL 10–22 L17M (peptide), the IC50 in assay [1] was less than 1000 nM. AMKRHGLDNYRGYSLGN-NH2 [HEL 11–27] registered an IC50 at purified I-A^g7 [2] of 300 nM.

HEL 10–22 Y20N (peptide): the half-maximal inhibitory concentration (IC50) in assay [1] lay within 1000 to 10000 nM.

The substance HEL 10–22 L17F (peptide) registered an IC50 in assay [1] of 1000 to 10000 nM.

With HEL 10–22 N19D (peptide), in assay [1], the IC50 came to 2000 nM. The same measure, in the same setting: the same measure for HEL 9–25 (peptide): 300 nM.

For the substance HEL 10–22 H15A (peptide), the IC50 in assay [1] was 300 nM. This counts as sub-micromolar.

Take HEL 10–22 N19Q (peptide): the IC50 in assay [1] amounted to 2000 nM.

For the substance HEL 10–22 G16D (peptide), the IC50 in assay [1] was determined as 2000 nM. On the same count and under the same terms, the same measure for human proinsulin 25–39 (peptide): 1000 nM. The same measure, in the same setting: the value for human proinsulin 9–23 (peptide) was 1000 nM; that for HEL 10–22 K13Y (peptide) was 250 nM. Regarding AAAMKRHGLDNYRGYSLG-NH2 [HEL 9–26], the IC50 on purified I-A^g7 [2] is 300 nM. Take HEL 9–17 (peptide): the IC50 in assay [1] is greater than 50000 nM. As for “KPKATAEQLKTVMDD [In serum albumin (560–574), reference compound]”, in the assay with purified I-A^g7 [3], the “binding to I-A^g7 (in words)” value is listed as “did not bind”. The substance HEL 10–22 G22A (peptide) showed an IC50 in assay [1] of 350 nM. That is a sub-micromolar value. As for HEL 11–27 (peptide), the IC50 in assay [1] stood at 300 nM. The same measure, in the same setting: the same measure for HEL 10–22 R14W (peptide): 1000 to 10000 nM. HEL 10–22 N19G (peptide): the IC50 in assay [1] was less than 1000 nM. In assay [1], HEL 10–22 A10L (peptide) came in with an IC50 of 300 nM. That is a sub-micromolar value. Same read-out and setting: the value for HEL 10–22 D18Q (peptide) was 200 nM; that for HEL 17–27 (peptide) was greater than 50000 nM; that for HEL 10–22 A11Y (peptide) was 350 nM. The same measure, in the same setting: the same measure for HEL 16–27 (peptide): greater than 50000 nM; for HEL 12–23 (peptide): 250 nM.

With “HEL 11–25: HEL peptide tested by Carrasco-Marin et al. (AMKRHGLDNYRGYSL; UniProt P00698 29-43, looked up, fragment)”, the “direct binding to purified I-A^g7” value in the assay on purified I-A^g7 [4] was “unable to demonstrate direct binding”. The substance AAMKRHGLDNYRGYSLGN-NH2 [HEL 10–27] came in with an IC50 on purified I-A^g7 [2] of 300 nM. Substance HEL 10–22 N19F (peptide) displayed a half-maximal inhibitory concentration (IC50) in assay [1] of 1000 to 10000 nM. Still for that read-out and setting: the value for HEL 10–22 G22Y (peptide) was 300 nM; that for HEL 10–22 R21K (peptide) was 350 nM.

Take AAAMKRHGLDNYR-NH2 [HEL 9–21]: it took 300 nM to reach half-maximal inhibition on purified I-A^g7 [2] (IC50). This counts as sub-micromolar. HEL 10–22 R14A (peptide) came in with an IC50 in assay [1] of 300 nM. The same measure, in the same setting: the value for HEL 10–22 Y20F (peptide) was less than 1000 nM.

Regarding KRHGLDNYRGYSLGN-NH2 [HEL 13–27], on purified I-A^g7 [2], the IC50 was determined as 300 nM. In assay [1], HEL 13–22 (peptide) had an IC50 of 250 nM. On the same count and under the same terms, the same measure for HEL 9–22 (peptide): 300 nM; for HEL 10–22 Y20R (peptide): less than 1000 nM.

Values taken from paper PMC2196246 (The Journal of Experimental Medicine, 1997).
